Measured values as given in patent US7053179 (WHITEHEAD INSTITUTE FOR BIOMEDICAL RESEARCH, dated 2006).

Molecular target: gp160 (precursor protein to gp120/gp41) expressed on CHO cells (HIV (strain ))
Experiment: cell-based or functional assay

GGHTTWMEWDREINNYTSLIHSLIEESQNQQEKNEQELLGGHHHHHH [His-tagged C-peptide C37-H6]
IC50 in the cell-cell fusion assay: ~1 nM
